Target: T1, amyloid β(3-11)
T1 chain: EFRHDSGYE

Protein | conversion of Aβ(3-11) into pGlu-Aβ(3-11), Maldi-Tof mass spectrometry
YSShisoQCI55NC351A C-His (human isoQC expressed in P. pastoris) (protein) FYTIWSGWHRRTEELPLGRELRVPLNGSLPEARLRRVVGQLDPQRLWSTYLRPLLVVRTPGSPGNLQVRKFLEATLRSLTAGWHVELDPFTASTPLGPVDFGNVVATLDPRAARHLTLACHYDSKLFPPGSTPFVGATDSAVPCALLLELAQALDLELSRAKKQAAPVTLQLLFLDGEEALKEWGPKDSLYGSRHLAQLMESIPHSPGPTRIQAIELFMLLDLLGAPNPTFYSHFPRTVRWFHRLRSIEKRLHRLNLLQSHPQEVMYFQPGEPFGSVEDDHIPFLRRGVPVLHLISTPFPAVWHTPADTEVNLHPPTVHNLARILAVFLAEYLGLHHHHHH | human QC and human isoQC (YSShisoQCI55NC351A C-His) catalyze the conversion of Aβ(3-11) into pGlu-Aβ(3-11); the conversion of N-terminal glutamic acid by hisoQC is much slower compared with hQC
human QC (glutaminyl cyclase, QPCT) (protein) VSPSASAWPEEKNYHQPAILNSSALRQIAEGTSISEMWQNDLQPLLIERYPGSPGSYAARQHIMQRIQRLQADWVLEIDTFLSQTPYGYRSFSNIISTLNPTAKRHLVLACHYDSKYFSHWNNRVFVGATDSAVPCAMMLELARALDKKLLSLKTVSDSKPDLSLQLIFFDGEEAFLHWSPQDSLYGSRHLAAKMASTPHPPGARGTSQLHGMDLLVLLDLIGAPNPTFPNFFPNSARWFERLQAIEHELHELGLLKDHSLEGRYFQNYSYGGVIQDDHIPFLRRGVPVLHLIPSPFPEVWHTMDDNEENLDESTIDNLNKILQVFVLEYLHL | human QC and human isoQC (YSShisoQCI55NC351A C-His) catalyze the conversion of Aβ(3-11) into pGlu-Aβ(3-11)

Source: patent publication US20080249083
